Laboratory results published in PMC5865211, “The orphan GPR50 receptor promotes constitutive TGFβ receptor signaling and protects against cancer development” (Nature Communications, 2018).

B1: TβRII-YFP (receptor, UniProt P37173 23-567, looked up)
chain: TIPPHVQKSVNNDMIVTDNNGAVKFPQLCKFCDVRFSTCDNQKSCMSNCSITSICEKPQEVCVAVWRKNDENITLETVCHDPKLPYHDFILEDAASPKCIMKEKKKPGETFFMCSCSSDECNDNIIFSEEYNTSNPDLLLVIFQVTGISLLPPLGVAISVIIIFYCYRVNRQQKLSSTWETGKTRKLMEFSEHCAIILEDDRSDISSTCANNINHNTELLPIELDTLVGKGRFAEVYKAKLKQNTSEQFETVAVKIFPYEEYASWKTEKDIFSDINLKHENILQFLTAEERKTELGKQYWLITAFHAKGNLQEYLTRHVISWEDLRKLGSSLARGIAHLHSDHTPCGRPKMPIVHRDLKSSNILVKNDLTCCLCDFGLSLRLDPTLSVDDLANSGQVGTARYMAPEVLESRMNLENVESFKQTDVYSMALVLWEMTSRCNAVGEVKDYEPPFGSKVREHPCVESMKDNVLRDRGRPEIPSFWLNHQGIQMVCETLTECWDHDPEARLTAQCVAERFSELEHLDRLSGRSCSEEKIPEDGSLNTTK
notes: TGFβ receptor type II; also called TβRII-yellow fluorescent protein fusion; source: HEK293T, transfected, in intact cells
B2: TβRI-Renilla luciferase 8 (Rluc8) fusion protein (receptor, UniProt P36897 34-503, looked up)
chain: LQCFCHLCTKDNFTCVTDGLCFVSVTETTDKVIHNSMCIAEIDLIPRDRPFVCAPSSKTGSVTTTYCCNQDHCNKIELPTTVKSSPGLGPVELAAVIAGPVCFVCISLMLMVYICHNRTVIHHRVPNEEDPSLDRPFISEGTTLKDLIYDMTTSGSGSGLPLLVQRTIARTIVLQESIGKGRFGEVWRGKWRGEEVAVKIFSSREERSWFREAEIYQTVMLRHENILGFIAADNKDNGTWTQLWLVSDYHEHGSLFDYLNRYTVTVEGMIKLALSTASGLAHLHMEIVGTQGKPAIAHRDLKSKNILVKKNGTCCIADLGLAVRHDSATDTIDIAPNHRVGTKRYMAPEVLDDSINMKHFESFKRADIYAMGLVFWEIARRCSIGGIHEDYQLPYYDLVPSDPSVEEMRKVVCEQKLRPNIPNRWQSCEALRVMAKIMRECWYANGAARLTALRIKKTLSQLSQQEGIKM
notes: TGFβ receptor type I; In the homomer BRET row the second copy of TβRI carried YFP (TβRI-YFP) instead of Rluc8; also called TβRI-Rluc8; source: HEK293T, transfected, in intact cells
B3: GPR50Δ4-YFP (receptor, human, UniProt Q13585 1-617, looked up)
chain: MGPTLAVPTPYGCIGCKLPQPEYPPALIIFMFCAMVITIVVDLIGNSMVILAVTKNKKLRNSGNIFVVSLSVADMLVAIYPYPLMLHAMSIGGWDLSQLQCQMVGFITGLSVVGSIFNIVAIAINRYCYICHSLQYERIFSVRNTCIYLVITWIMTVLAVLPNMYIGTIEYDPRTYTCIFNYLNNPVFTVTIVCIHFVLPLLIVGFCYVRIWTKVLAARDPAGQNPDNQLAEVRNFLTMFVIFLLFAVCWCPINVLTVLVAVSPKEMAGKIPNWLYLAAYFIAYFNSCLNAVIYGLLNENFRREYWTIFHAMRHPIIFFSGLISDIREMQEARTLARARAHARDQAREQDRAHACPAVEETPMNVRNVPLPGDAAAGHPDRASGHPKPHSRSSSAYRKSASTHHKSVFSHSKAASGHLKPVSGHSKPASGHPKSATVYPKPASVHFKADSVHFKGDSVHFKPDSVHFKPASSNPKPITGHHVSAGSHSKSAFSAATSHPKPIKPATSHAEPTTADYPKPATTSHPKPTAADNPELSASHCPEIPAIAHPVSDDSDLPESASSPAAGPTKPAASQLESDTIADLPDPTVVTTSTNDYHDVVVIDVEDDPDEMAV
notes: also called GPR50-YFP; source: HEK293T, transfected, in intact cells

Key:
[1] = molecular target: B2; assay: FRET or BRET; BRET donor saturation in intact HEK293T cells; fixed amount of TβRI-Rluc8, increasing amounts of YFP fusion; no TGFβ; conditions: partners not purified
[2] = molecular target: the molecule itself; assay: as above

BRET50 [1]	Binder	BRET50 [2]
0.046 ± 0.008	B1	–
–	B2	1.34 ± 0.185
0.031 ± 0.01	B3	–
